The record followed here is paper PMC2583301 (The Journal of Biological Chemistry, 2008).

Where a chain is given by its changes, count along the chain named. Names may count otherwise. Like-named read-outs stand apart in the source and are kept apart here.

Experiment [1] addresses T1, H2A/H2B dimer (major type, wild type) (Xenopus laevis, UniProt P06897;P02281). Kind of experiment: other fluorescence titration.
Experiment [2] concerns the target T1, H2A/H2B dimer (major type, wild type). Kind of experiment: other fluorescence titration. This is another data set of the same source.
The target is the same in experiment [3]. Briefly: other fluorescence titration. The source holds these as a separate data set.
Experiment [4] has the same target. Kind of experiment: other fluorescence titration. This is another data set of the same source.
In experiment [5] the target is H2A refolded in the absence of H2B (Xenopus laevis, UniProt P06897 1-130). Kind of experiment: other fluorescence titration.
The target in experiment [6] is H3 alone (Xenopus laevis, UniProt P84233 1-136). Briefly: other fluorescence titration.
Experiment [7] addresses H2A.Z/H2B dimer ( | Xenopus laevis, UniProt P0C0S5;P02281). Briefly: other fluorescence titration.
In experiment [8] the target is T1, H2A/H2B dimer (major type, wild type). Briefly: native gel or EMSA. (In general: In EMSA bound probe runs differently from free probe, usually more slowly.)

B1: yNap1 C200A/C249A/C272A labelled with Alexa dye at Cys-414 (yNap1m*) (natural protein)
chain: MSDPIRTKPKSSMQIDNAPTPHNTPASVLNPSYLKNGNPVRAQAQEQDDKIGTINEEDILANQPLLLQSIQDRLGSLVGQDSGYVGGLPKNVKEKLLSLKTLQSELFEVEKEFQVEMFELENKFLQKYKPIWEQRSRIISGQEQPKPEQIAKGQEIVESLNETELLVDEEEKAQNDSEEEQVKGIPSFWLTALENLPIVADTITDRDAEVLEYLQDIGLEYLTDGRPGFKLLFRFDSSANPFFTNDILAKTYFYQKELGYSGDFIYDHAEGAEISWKDNAHNVTVDLEMRKQRNKTTKQVRTIEKITPIESFFNFFDPPKIQNEDQDEELEEDLEERLALDYSIGEQLKDKLIPRAVDWFTGAALEFEFEEDEEEADEDEDEEEDDDHGLEDDDGESAEEQDDFAGRPEQAPECKQS
modifications: Alexa-546 or Alexa-488 on Cys-414
For B1, the Kd in experiment [1] is 1.2 nM; in experiment [2] it was 7.8 nM; in experiment [3] it was 21.6 nM; in experiment [4], 7.8 nM; in experiment [5], 3.5 nM; in experiment [6], more than 10000 nM. Binding in experiment [7] was put at a Kd of 7.4 nM.

B2: yeast nucleosome assembly protein 1 (yNap1), wild type (natural protein)
chain: B1 chain with A200C, A249C, A272C
For the molecule B2, the binding result in experiment [8] is “binds”.

In general, Kd refers to the concentration at which binding is half-saturated.
